Measured values as given in patent US20110038920A1, “WOUND HEALING COMPOSITIONS AND TREATMENTS” (priority 2008, published 2011).

Test system: OPN expression in Swiss 3T3 fibroblasts
Test: Induction of OPN expression in fibroblasts by growth factors/cytokines (Western blot)
Format: cell-based
Conditions: 8 h; PDGF-BB 20, EGF 100, TGFβ1 10, TGFβ3 10, IL-6 50, TNFα 10 ng/ml
Experimental: Protein samples (20 μg; collected in T-PER® Reagent; PIERCE Biotechnology) were separated on Tris-Glycine Gels (Invitrogen), transferred to PVDF, and blotted according to standard protocols (antibody details are provided above).
Swiss 3T3, J774.1 macrophages, and RBL mast cells were cultured in DMEM+10% fetal calf serum. Primary neutrophils were harvested by peritoneal lavage 4 h post-thioglycollate-induced peritonitis, and primary macrophages were derived from mouse bone marrow and activated with LPS (500 ng/ml).

B1: TGFβ3: growth factor/cytokine, BioVision (protein, UniProt P10600 301-412, looked up)
Transforming growth factor …: ALDTNYCFRNLEENCCVRPLYIDFRQDLGWKWVHEPKGYYANFCSGPCPYLRSADTTHSTVLGLYNTLNPEASASPCCVPQDLEPLTILYYVGRTPKVEQLSNMVVKSCKCS
modifications: Transforming growth factor beta-3
notes: growth factor/cytokine, BioVision
  ability to upregulate OPN expression in Swiss 3T3s: not
